Our source for the 3TP-lux luciferase expression induced by TGF-b1 in HepG2 cells (fold reduction), FAST2/A3-luciferase induction by 100 pM TGF-b1 in 293T cells (fold reduction) and 3TP-lux luciferase expression induced by activin-A in HepG2 cells (fold reduction) values is patent US20110009319A1.

For one test, the target named is TGF-b1 (UniProt P01137). As to the kind of experiment: cell-based or functional assay.
A further test has as its target activin-A (UniProt P08476). Description: cell-based or functional assay.

Chain of TGF-b1 (P01137 279-390 limits assumed): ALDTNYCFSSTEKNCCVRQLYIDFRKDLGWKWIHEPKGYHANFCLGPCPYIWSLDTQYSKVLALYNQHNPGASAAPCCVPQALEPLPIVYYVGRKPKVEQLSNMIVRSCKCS
Chain of activin-A (P08476 311-426): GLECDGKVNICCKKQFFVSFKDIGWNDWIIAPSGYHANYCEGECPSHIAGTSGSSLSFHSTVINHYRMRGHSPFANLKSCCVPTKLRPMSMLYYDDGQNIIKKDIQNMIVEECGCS

Take “wild type mouse Cripto (from UniProt P51865 18-134) (receptor)”: in the test with TGF-b1, the 3TP-lux luciferase expression induced by TGF-b1 in HepG2 cells (fold reduction) worked out at 4 and the FAST2/A3-luciferase induction by 100 pM TGF-b1 in 293T cells (fold reduction) was 3. Also, the 3TP-lux luciferase expression induced by activin-A in HepG2 cells (fold reduction) with activin-A came out at 4.
